# Results published in the DeepSol protein solubility set.
# Experiment: soluble on expression in E. coli; label from the status in PepcDB or PDB records
row,Sequence,soluble on expression in E. coli
1,MAWLRFFSRTLKSLPQISSSSPNPNPNFRTSPFSTSFLITKTPDKLKKKRKKPESARTKSIQHESTKLPHLESLVSRDAHFRFLIRSKEFISKQPERILRLDDAGKLYRELGFPRGRKVTKFIPKHPLIFQTYRHSDGKIWLGFTEFMEDLLDEEKGLMESMELDRVNCVRKLLMMTKDKRILLSKIHHTRLLFGIPEDFRDRVAKYPDYFRVVTGGDGNRVLELVNWDTNLAHGKELELEEKDTRKLNLLNTFPLVSPYSDGWKLDVWSLEAEKYRVGIVHEFLNLTLEKRASIHHIVEFKDEFSLTRQTYQMLKKQSMSFYLAGTEMNWTVFLKDAYDENGVLVSKDPQVVFNEKLYKYADMQQMEQVG,soluble
2,MAYSEKVIDHYENPRNVGKLDAADPNVGTGMVGAPACGDVMRLQIKVNEQGVIEDAKFKTYGCGSAIASSSLATEWMKGKTLDEAETIKNTTIAEELALPPVKIHCSVLAEDAIKAAVRDYKQKKGLL,not soluble
3,MCASFAKFAERWNPLPETLLSWSKNNCDKVQPRPRDMSCEDVVQFVADCNFSGGGPGPGKLADTTNRQVADTFYQRTYENSPRVLPKYIYYNENTARDYGQFGNWYYPNYYPPTYLGFFDGRPASMAQLENDYKFAKGGHYPYNRADNIVNIGLQQTYLPTCLHDLFYCVRASNGQRPQAYLNYKEYRRDRDQAAEQMAQRDQDIKTLRRHRTRHHEDDE,not soluble
4,MCASFSPTLDSRSRQLLRTLISCYIQNGEPIGSKTLAQQAGLDISPATIRNILADLEELGLLNSPHTSAGRVPTAHGYRMFVDSLVQMQPPSEDDIRRLRVEMTGGGTQTLLGSASEILSAMTHFVGVVSAPRREQFVFRHIDFVPLDARQIMAILIFADNEVQNRVIEPRRVYEPGELERVSNYLNAHFIGRTLADIRTTVLCELRKAKDEMEQLLAHSLDLASQMLVPNDSEDIVVTGQTRLMALQDLSDMDRLRELFEIFASKREILQLLERTIDAPGVRIFIGEETGMVSMEDISLVTAPYAAHGQVLGVLGVIGPKRMAYDRVIPLVQVVAQVLGTALEPPTMP,not soluble
5,MCENLYGEEYKMEILRLQKMMNNMTCGQMAKPLTMKDFQIHQALGKGAYGNVYRVRSLHDGKDYALKQIMISSKNEGIPQSVLREITVMKHLARKAHPNIISLKSVFHQLDPVRAILKINMIMERCDWDLHTFLRNIPRGVPEQQAKHVTAQIVRALDFLHTHSIIHRDLKPQNILLNRDQTVKLADFGLSKEYSNTTAFTTLVVTLWYRSPEVLLQSYYNSTVDMWALGCIVSEIYCRQPLFVGQNEAEQLTDIFKKMGTPVGKDWPSESVIARDSFPQYRPTNLKDLSPQMSKQAIEFVQQCLRYDHSKRLSARGALSHPFLKPAVATKSRVLKQINFNK,not soluble
6,MCIAAWVWQAHPQHQLLLLLNRDEFHSRPTKAVGWWGEGSKKILGGRDVLGGGTWMGCTKDGRLAFLTNVLEPDAMPGARTRGDLPLRFLQSNKSPLEVATEVAKEADEYNGFNLVLADLTTNVMVYVSNRPKGQPATIQLVSPGLHVLSNARLDSPWQKAIRLGKNFREHLRKHGDDEVEAKDIVERLMTDTTKADKDRLPNTGCDPNWEHGLSSIFIEVQTDQGLYGTRSTAVLSVNYDGEASLYEKYLESGIWKDHTVHYQIE,soluble
7,MCLDKMTDIRVRGYKSISFWQEEGIGLIVIRSDSHGRFDLNTLGEITAAIGIAAMDGSVRAVALTGMNNIFGRQLVIGQLSNNTVYNVMQSSSSLISMIYTFEKPIFSILNGDAIDEGYEIALLADRIISADDIKVGFSRDYEFKIGGSFTSLRMTKTDISGPAEGINVDRVVKHESLLEDAKNIIKETADINFPMRRRQRYRYISELINAEKINFYEHYLARS,not soluble
8,MCLVQATGGSSTHKLVSAGAEKMIITRPDFVDPPGSKDISITRTARAPKEDKLVIHFCTCRCN,not soluble
9,MCMMSHNKAFFLSLQHAAVSGVAVCLSVRRGAGSVPAGNRGKKTIITEYRITGTRALARCPTKPVTSMWNSSWTSRLEHHHHHH,not soluble
10,MCMTNSMSDALKTLEVFRPEVEEIDEREVKLSVAPDRVIAVLETLKSLGYSHLSLMTCIDWIEDSQFELVYILFSWKDGGKFIVTTRIDRNNPQFVTVKEIWPVARFYEREIHEFFGVKFSGNEDMKPLFLELWDDKPPLRKDFDPLEYSRRKFPGREYQKDVIDEAKKIFRGEING,soluble
11,MCNNEAKMSELLSVQSDAPAKKINLMDLTRQQMREFFKELGEKPFRADQLVKWIYHFGEDNFDNMTNINKKLREKLKAVAEIKAPEVAVEQRSADGTIKWAMQVGEQQVETVYIPEADRATLCVSSQVGCALACTFCSTAQQGFNRNLTVSEIIGQVWRASKIIGNFGVTGVRPITNVVMMGMGEPLLNVANVVPAMEIMLDDFAYGLSKRRVTLSTSGVVPALDNLSKMIDVALAISLHAPNDELRDEIVPINKKYNIKTLIDSVNRYLNVSNANHGKVTIEYVMLDHVNDGVEHAHQLAEVLKNTPCKINLIPWNPFPEAPYAKSSNTRIDRFQKTLMEYDFTVIIRKTRGDDIDAACGQLAGDVIDRTKRTAMKRQFGQNIGVTEVN,not soluble
12,MCPRTSCRFYPFTIDFGTFRMAIIHAKSMTIPTSKLVAFSDKFLQNLRCFNCAVMDIVKNDATLPLGHLEEYTPGNRIGNWIGPVKGINIPSHLKADFRKSQPLSITRSVREAEWCTPFINCTQYYICINHLFAERIATKLRQVMGHTMISNCVSLLYLTGDFRRSSRFSGPIESANITSNLEEHCWHSIVLDFFDFICINSMRAIIEGKYQCFRRFITKYLMFAFFNWYRISFENSIIMQNHFTCVRTTQMRHVVIPLFTLNKDSSITIKRNRPSNFLIVVALNLICLEHHHHHH,not soluble
13,MCQLDVASIGDIASYRLSPISKLRYLRHTESPKSPKSSIAIPRKRYKRYRQISRMPKNHFWKNGDISYTETHIGDIFNMPYFQISIFPISPSLSAINTTIARHEFSRRQKSQNAYFGQTHILLFTAAYSPFLEHHHHHH,soluble
14,MCTELEPHQRLKKIIDEIGVSQTKLACKYLGRATINKIIRGERPLNAAQAYKFIQRFKDFGYNADIELILGIPTKTIDSTVKKFLSNTKKHYLEFDKLIDKLYKDKAIEVIWNVIEKLDIQDVYKNANIILKYLTKLMQYDLDADIYLKVNIELIKIYTATANYERAITAFNSLKNFSILDRETKVKCFLNVALAYYNLREYKSSIDIASRVMKLKIFDKYYFKASIIKANVLYTDGRINESIKEYEKIAIKAEKYHFIEYVATSESNIGYVFTEQNKFNEAKLHLDEAMKLFDSLNNYYKLNVYDNVFGFKIKNNTADFDTFKKVILLAYDTNDKFRIKNNVKQFVNYAIRNKKSKEIFTKIIDFLNPKGIDLDSSLKLEIMEYVSGNTFESVLKLEHHHHHH,not soluble
15,MDALAIINKYYPEDNELKHILLAHSRSVADKALWIAGKHPELNLDKQFLEEAAMLHDIGIFMTDAEGICCFGSYPYICHGYLGADLMRKEGFPRHALVCERHTGAGMSLQSIIDQQLPVPHRNMVPVSLEEQVICFADKFFSKTHLDREKSVEKALKSISRYGEDGIIRFNHWCECFL,soluble
16,MDALNNKLYFIDSTKHKIFVEQIINGMHDWVRVIDINDNIIFVNESMAKALGKNVIGEKCYKAIGKSEPCENCTSRKAVFEGTIQAKEEIIGDRIFSVKSSPIRDENGQITAVVEVLRDITEMKKMQKKILEHNQKLQSELNMARRLQCSLLPKELPQDKIDFSYVYRPCEAIGGDFLDIFKIDDEHIGIYIADVSGHGVPASMLTVFLRSSINKKTLSPAEALNQLYKEFNRDYYDQELYITIFYAIIDTKNKNIIYSNAGHNASPVLFNHESHRFDILRIPGVPISDWVDNPEYTEKSISIEKGDRLFMYTDGIVELRNNKGEQFGEERLLNILLGEKMPPAMTLDRIIEAAMEFANIKNFNKIIDDITMALLEIL,soluble
17,MDANEKKEVIKKKYQEIAILGGSCCSGGCCGDSNSTDLSRSLGYSESDVQAVPDANMGLGCGNPTAFAELKPGDVVLDLGSGGGFDCFLAAQKIGSSGKVIGVDMTLEMVEKAQANARKYGYSNVEFRHGDIESLPVKDSSVDVIISNCVINLAPDKEKVFREAFRVLKPEGRMYISDMVLLDELPEELKNDSELLAGCIAGAVLKEEYLGLLKKAGFSVEILNEDLDISKRQYRDLPVESLKLKARVLEHHHHHH,soluble
18,MDAVQELERRIVELEIQSALQEDVIAGLNAMVAELRQTLDLQQAQLRLLYQKMQDRNPDAQEPYSLRDEIPPHY,not soluble
19,MDDREDLVYQAKLAEQAERYDEMVESMKKVAGMDVELTVEERNLLSVAYKNVIGARRASWRIISSIEQKEENKGGEDKLKMIREYRQMVETELKLICCDILDVLDKHLIPAANTGESKVFYYKMKGDYHRYLAEFATGNDRKEAAENSLVAYKAASDIAMTELPPTHPIRLGLALNFSVFYYEILNSPDRACRLAKAAFDDAIAELDTLSEESYKDSTLIMQLLRDNLTLWTSDMQGDGEEQNKEALQDVEDENQ,soluble
20,MDDSTLTELEAAAFRRLVAHLRERTDVQNIDLMNLAGFCRNCLSNWLKDAADAQGVAMSRDESREAVYGMPYETWKAKYQSTATPDQVEAFKKSHPHSH,not soluble
21,MDDTLFQLKFTAKQLEKLAKKAEKDSKAEQAKVKKALQQKNVECARVYAENAIRKKNEGVNWLRMASRVDAVASKVQTAVTMKGVTKNMAQVTKALDKALSAMDLQKVSAVMDRFEQQVQNLDVHTSVMEDSVSSATTLTTPQEQVDSLIVQIAEENGLEVLDQLSQLPEGASAVGESSVRSQEDQLSRRLAALRN,not soluble
22,MDEGVKEKFIGAVLGAAVGDALGKSVEDITEEEVFEFYGDRIRDFVTPHPSSPAYGQLPEETSDETTIFRLLLESLVEKKALDVRDFLNRLMEWYDREEMHRYPDPMLLTAIDLLSRGINPSTHGLTSFSVEGILRSVALGLYHYYNPELAAEGSKVVSLLTHRSDVISDASAILGALIAHLVRGDFYLEDFREKLRLIETLKDYAKEEKHKKILDRVAELLMESADLETAINTLGNGTFAFEAFPLALYIFLSNVENPEEALFQAVNSYGEFGGDTDAIGFLVGAMLGAYYGEEAIPYHLRENVENSQKLRELAERLYEVVEKQVGFSQ,not soluble
23,MDELLKAIKTKIAEMKKIELTGFTNTETATAYFQEKEAILEGIVKTLETITVQETSEVEALKSTVKSLREEIKGQAKSPRELSRRELLYNLGKGIAAAWSGNHKVLADLAFSPNLKSDNWTNPKDVSWGERGWTVSKAALGEPMGNMSPNNEQFLINPIYETEIMSDVAKKSVMMSLVRHRPMLGPSIFLPTRDRGGVQLNWLTAYGQKIEGSKPKGAERVELKAYTLAGFIPWFDEFEEDVFVDLGAMFIDEFIETYGQEFDRQCLLADDDPFTGAMACADVTEVTIKGDTIDDLTWKDFRDAVYKVPAEERKDCSWFLNETVLNHIANIEDTTGRPIWRRPTEAMPGRLDLYPYHEVSILPQIADIGENQAFAVFMNPKRIQHGNRRGIELKKFDGTTESLEYGELFLRFRKRDGFLVPDRKTTWSSLGHN,not soluble
24,MDELNPSPPVSEDPEHWYCTNMVGVPVGLIGSTAFNRCLRRITIHGTRETHPGLFRLLAACEYPATASEVFEHYMELEFGLAPGAHEPTQARYPTSYLDLLRGWGVESDCPKAAVLKGWVESRFGLVPTFHKQRLGLFPSSAWATYLQEKTDVRFHNNCIFQQFDLLYEYCQWSIRRFKTPGPRFVRLWRGTNDVEQQLVEGDARQRLCTVRLNNLVSFSDSKERAEEFGDWVLETEVPTVKLLFFPGLLQRQVLGYEGEFLVIGGNYKVRAYHGWFAAALEHHHHHH,not soluble
